The target in the test is T1, p53 C-terminal domain (p53CTD, residues 293–393) (UniProt P04637 293-393).
T1 construct: p53 C-terminal domain, residues 293–393; 15N-labeled for NMR; also called p53(293–393); full length p53CTD; source: E. coli (C41 for the 15N-labeled protein), purified as described [23]
Kind of test: peptide or protein array; Celluspots peptide array, peptides immobilised; 20 µM p53CTD in 1% milk in TBS-T (50 mM Tris pH 7.5, 110 mM NaCl, 0.05% Tween 20), overnight at 4°C; detected with FL-393 anti-p53 antibody. Particulars: both partners purified.

T1 sequence (P04637 293-393): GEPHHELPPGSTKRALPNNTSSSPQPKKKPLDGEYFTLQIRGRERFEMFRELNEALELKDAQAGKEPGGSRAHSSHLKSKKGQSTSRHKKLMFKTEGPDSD

B1: PKCα(271–285), peptide on the array (peptide)
peptide: ASGWYKLLNQEEGEY
notes: Protein Kinase C α isoform, residues 271–285; Immobilised on the array; source: bought: Intavis Celluspots peptide array
For the molecule B1, the binding result is given as “binds”.

(Values after publication PMC3365014 (PLoS ONE, 2012).)
